Data as given in US20230035659A1, “Compositions and Methods for TTR Gene Editing and Treating ATTR Amyloidosis Comprising a Corticosteroid or Use Thereof” (Intellia Therapeutics, Inc., priority 2019, published 2023).
Strand notation (5' to 3'): a small letter for the sugar, then the base; units joined by * are phosphorothioate-linked, units joined directly phosphodiester-linked; [ ] holds rarer units or linkages, { } end groups; capitals alone tell only the bases. m = 2'-O-methyl; r = 2'-OH (RNA)

B1: G000570: TTR sgRNA modified sequence, Human, SEQ ID NO: 111; guide sequence of CR003347 (nucleic acid)
guide: mC*mA*mU*rUrGrArUrGrGrCrArGrGrArCrUrGrCrCrUrGrUrUrUrUrArGrAmGmCmUmAmGmAmAmAmUmAmGmCrArArGrUrUrArArArArUrArArGrGrCrUrArGrUrCrCrGrUrUrArUrCrAmAmCmUmUmGmAmAmAmAmAmGmUmGmGmCmAmCmCmGmAmGmUmCmGmGmUmGmCmU*mU*mU*mU
B2: G000486: TTR sgRNA modified sequence, Human, SEQ ID NO: 93; guide sequence of CR003339 (nucleic acid)
guide: mA*mC*mA*rCrArArArUrArCrCrArGrUrCrCrArGrCrArGrUrUrUrUrArGrAmGmCmUmAmGmAmAmAmUmAmGmCrArArGrUrUrArArArArUrArArGrGrCrUrArGrUrCrCrGrUrUrArUrCrAmAmCmUmUmGmAmAmAmAmAmGmUmGmGmCmAmCmCmGmAmGmUmCmGmGmUmGmCmU*mU*mU*mU
B3: G000493: TTR sgRNA modified sequence, Human, SEQ ID NO: 100; guide sequence of CR003368 (nucleic acid)
guide: mA*mA*mG*rUrGrCrCrUrUrCrCrArGrUrArArGrArUrUrGrUrUrUrUrArGrAmGmCmUmAmGmAmAmAmUmAmGmCrArArGrUrUrArArArArUrArArGrGrCrUrArGrUrCrCrGrUrUrArUrCrAmAmCmUmUmGmAmAmAmAmAmGmUmGmGmCmAmCmCmGmAmGmUmCmGmGmUmGmCmU*mU*mU*mU
B4: G000489: TTR sgRNA modified sequence, Human, SEQ ID NO: 96; guide sequence of CR003344 (nucleic acid)
guide: mU*mU*mU*rGrArCrCrArUrCrArGrArGrGrArCrArCrUrGrUrUrUrUrArGrAmGmCmUmAmGmAmAmAmUmAmGmCrArArGrUrUrArArArArUrArArGrGrCrUrArGrUrCrCrGrUrUrArUrCrAmAmCmUmUmGmAmAmAmAmAmGmUmGmGmCmAmCmCmGmAmGmUmCmGmGmUmGmCmU*mU*mU*mU
B5: G000482: TTR sgRNA modified sequence, Human, SEQ ID NO: 89; guide sequence of CR003365 (nucleic acid)
guide: mU*mG*mU*rArGrArArGrGrGrArUrArUrArCrArArArGrGrUrUrUrUrArGrAmGmCmUmAmGmAmAmAmUmAmGmCrArArGrUrUrArArArArUrArArGrGrCrUrArGrUrCrCrGrUrUrArUrCrAmAmCmUmUmGmAmAmAmAmAmGmUmGmGmCmAmCmCmGmAmGmUmCmGmGmUmGmCmU*mU*mU*mU
B6: G000483: TTR sgRNA modified sequence, Human, SEQ ID NO: 90; guide sequence of CR005298 (nucleic acid)
guide: mU*mC*mC*rArCrUrCrArUrUrCrUrUrGrGrCrArGrGrArGrUrUrUrUrArGrAmGmCmUmAmGmAmAmAmUmAmGmCrArArGrUrUrArArArArUrArArGrGrCrUrArGrUrCrCrGrUrUrArUrCrAmAmCmUmUmGmAmAmAmAmAmGmUmGmGmCmAmCmCmGmAmGmUmCmGmGmUmGmCmU*mU*mU*mU
B7: G000490: TTR sgRNA modified sequence, Human, SEQ ID NO: 97; guide sequence of CR003366 (nucleic acid)
guide: mA*mA*mA*rUrArGrArCrArCrCrArArArUrCrUrUrArCrGrUrUrUrUrArGrAmGmCmUmAmGmAmAmAmUmAmGmCrArArGrUrUrArArArArUrArArGrGrCrUrArGrUrCrCrGrUrUrArUrCrAmAmCmUmUmGmAmAmAmAmAmGmUmGmGmCmAmCmCmGmAmGmUmCmGmGmUmGmCmU*mU*mU*mU
B8: G000499: TTR sgRNA modified sequence, Human, SEQ ID NO: 106; guide sequence of CR005303 (nucleic acid)
guide: mU*mG*mA*rArUrCrCrArArGrUrGrUrCrCrUrCrUrGrArGrUrUrUrUrArGrAmGmCmUmAmGmAmAmAmUmAmGmCrArArGrUrUrArArArArUrArArGrGrCrUrArGrUrCrCrGrUrUrArUrCrAmAmCmUmUmGmAmAmAmAmAmGmUmGmGmCmAmCmCmGmAmGmUmCmGmGmUmGmCmU*mU*mU*mU
B9: G000480: TTR sgRNA modified sequence, Human, SEQ ID NO: 87; guide sequence of CR003353 (nucleic acid)
guide: mA*mA*mA*rGrGrCrUrGrCrUrGrArUrGrArCrArCrCrUrGrUrUrUrUrArGrAmGmCmUmAmGmAmAmAmUmAmGmCrArArGrUrUrArArArArUrArArGrGrCrUrArGrUrCrCrGrUrUrArUrCrAmAmCmUmUmGmAmAmAmAmAmGmUmGmGmCmAmCmCmGmAmGmUmCmGmGmUmGmCmU*mU*mU*mU
B10: G000500: TTR sgRNA modified sequence, Human, SEQ ID NO: 107; guide sequence of CR003337 (nucleic acid)
guide: mC*mC*mA*rGrUrCrCrArGrCrArArGrGrCrArGrArGrGrGrUrUrUrUrArGrAmGmCmUmAmGmAmAmAmUmAmGmCrArArGrUrUrArArArArUrArArGrGrCrUrArGrUrCrCrGrUrUrArUrCrAmAmCmUmUmGmAmAmAmAmAmGmUmGmGmCmAmCmCmGmAmGmUmCmGmGmUmGmCmU*mU*mU*mU
B11: G000488: TTR sgRNA modified sequence, Human, SEQ ID NO: 95; guide sequence of CR003346 (nucleic acid)
guide: mA*mA*mA*rGrUrUrCrUrArGrArUrGrCrUrGrUrCrCrGrGrUrUrUrUrArGrAmGmCmUmAmGmAmAmAmUmAmGmCrArArGrUrUrArArArArUrArArGrGrCrUrArGrUrCrCrGrUrUrArUrCrAmAmCmUmUmGmAmAmAmAmAmGmUmGmGmCmAmCmCmGmAmGmUmCmGmGmUmGmCmU*mU*mU*mU
B12: G000494: TTR sgRNA modified sequence, Human, SEQ ID NO: 101; guide sequence of CR003360 (nucleic acid)
guide: mG*mU*mG*rArGrUrCrUrGrGrArGrArGrCrUrGrCrArUrGrUrUrUrUrArGrAmGmCmUmAmGmAmAmAmUmAmGmCrArArGrUrUrArArArArUrArArGrGrCrUrArGrUrCrCrGrUrUrArUrCrAmAmCmUmUmGmAmAmAmAmAmGmUmGmGmCmAmCmCmGmAmGmUmCmGmGmUmGmCmU*mU*mU*mU
B13: G000484: TTR sgRNA modified sequence, Human, SEQ ID NO: 91; guide sequence of CR003367 (nucleic acid)
guide: mA*mG*mA*rCrArCrCrArArArUrCrUrUrArCrUrGrGrArGrUrUrUrUrArGrAmGmCmUmAmGmAmAmAmUmAmGmCrArArGrUrUrArArArArUrArArGrGrCrUrArGrUrCrCrGrUrUrArUrCrAmAmCmUmUmGmAmAmAmAmAmGmUmGmGmCmAmCmCmGmAmGmUmCmGmGmUmGmCmU*mU*mU*mU
B14: G000502: TTR Cyno specific sgRNA modified sequence, SEQ ID NO: 114; guide sequence of CR000689; cross homologous between mouse and cyno (nucleic acid)
guide: mA*mC*mA*rCrArArArUrArCrCrArGrUrCrCrArGrCrGrGrUrUrUrUrArGrAmGmCmUmAmGmAmAmAmUmAmGmCrArArGrUrUrArArArArUrArArGrGrCrUrArGrUrCrCrGrUrUrArUrCrAmAmCmUmUmGmAmAmAmAmAmGmUmGmGmCmAmCmCmGmAmGmUmCmGmGmUmGmCmU*mU*mU*mU

tested on: TTR; test: TTR editing in primary human hepatocytes treated with LNP formulated Spy Cas9 mRNA (SEQ ID NO: 2) and sgRNAs, 12.5 ng mRNA; assay type: cell-based; conditions: LNP formulated Spy Cas9 mRNA (SEQ ID NO: 2) and sgRNA, 12.5 ng mRNA, 3.9 nM sgRNA, 72 hours
Procedure: Primary liver hepatocytes. Primary human liver hepatocytes (PHH) and primary cynomolgus liver hepatocytes (PCH) (Gibco) were cultured per the manufacturer's protocol (Invitrogen, protocol 11.28.2012). In brief, the cells were thawed and resuspended in hepatocyte thawing medium with supplements (Gibco, Cat. CM7000) followed by centrifugation at 100 g for 10 minutes for human and 80 g for 4 minutes for cyno. The supernatant was discarded and the pelleted cells resuspended in hepatocyte plating medium plus supplement pack (Invitrogen, Cat. A1217601 and CM3000). Cells were counted and plated on Bio-coat collagen I coated 96-well plates (ThermoFisher, Cat. 877272) at a density of 33,000 cells/well for human or 60,000 cells/well for cyno (or 65,000 cells/well when assaying effects on TTR protein, described further below). Plated cells were allowed to settle and adhere for 6 or 24 hours in a tissue culture incubator at 37° C. and 5% CO2 atmosphere. After incubation cells were checked for monolayer formation and media was replaced with hepatocyte culture medium with serum-free supplement pack (Invitrogen, Cat. A1217601 and CM4000).
In general, the lipid nanoparticle components were dissolved in 100% ethanol with the lipid component of various molar ratios. The RNA cargos were dissolved in 25 mM citrate, 100 mM NaCl, pH 5.0, resulting in a concentration of RNA cargo of approximately 0.45 mg/mL. The LNPs were formulated with a lipid amine to RNA phosphate (N:P) molar ratio of about 4.5 or about 6, with the ratio of mRNA to gRNA at 1:1 by weight.
The LNPs were formed by microfluidic mixing of the lipid and RNA solutions using a Precision Nanosystems NanoAssemblr™ Benchtop Instrument, according to the manufacturer's protocol. A 2:1 ratio of aqueous to organic solvent was maintained during mixing using differential flow rates. After mixing, the LNPs were collected, diluted in water (approximately 1:1 v/v), held for 1 hour at room temperature, and further diluted with water (approximately 1:1 v/v) before final buffer exchange. The final buffer exchange into 50 mM Tris, 45 mM NaCl, 5% (w/v) sucrose, pH 7.5 (TSS) was completed with PD-10 desalting columns (GE). If required, formulations were concentrated by centrifugation with Amicon 100 kDa centrifugal filters (Millipore). The resulting mixture was then filtered using a 0.2 μm sterile filter. The final LNP was stored at −80° C. until further use.
Additional PCR was performed per the manufacturer's protocols (Illumina) to add chemistry for sequencing. The amplicons were sequenced on an Illumina MiSeq instrument. The reads were aligned to a reference genome (e.g., the human reference genome (hg38), the cynomologus reference genome (mf5), the rat reference genome (rn6), or the mouse reference genome (mm10)) after eliminating those having low quality scores. The resulting files containing the reads were mapped to the reference genome (BAM files), where reads that overlapped the target region of interest were selected and the number of wild type reads versus the number of reads which contain an insertion, substitution, or deletion was calculated.
The editing percentage (e.g., the “editing efficiency” or “percent editing” or “indel frequency”) is defined as the total number of sequence reads with insertions/deletions (“indels”) or substitutions over the total number of sequence reads, including wild type.
Lipid nanoparticle formulations of modified sgRNAs targeting human TTR and the cyno matched sgRNA sequences were tested on primary human hepatocytes and primary cyno hepatocytes in a dose response curve. Primary human and cyno hepatocytes were plated as described in Example 1. Both cell lines were incubated at 37° C., 5% CO2 for 24 hours prior to treatment with LNPs. The LNPs used in the experiments detailed in Tables 18-21 were prepared using the Nanoassemblr™ procedure, each containing the specified sgRNA and Cas9 mRNA (SEQ ID NO:2), each having Lipid. […]

Molecule | 12.5 ng mRNA, 3.9 nM sgRNA, Avg % Edit [%]
B1 | 88.30
B2 | 61.33
B3 | 7.33
B4 | 16.85
B5 | 19.10
B6 | 7.37
B7 | 10.53
B8 | 16.07
B9 | 59.33
B10 | 23.57
B11 | 44.80
B12 | 6.37
B13 | 16.67

same assay, conditions: LNP formulated Spy Cas9 mRNA and sgRNA, 8 point 2-fold dose response starting at 100 ng mRNA

Molecule | dose response curve of % editing (shape)
B1 | uncharacteristic dose response curve

tested on: TTR; test: TTR editing dose response (EC50, maximum editing) in primary cyno hepatocytes treated with LNP formulated U-depleted Spy Cas9 mRNA and sgRNAs; assay type: cell-based, cynomolgus monkey; conditions: LNP formulated U-depleted Spy Cas9 mRNA and cyno specific sgRNAs
How it was run: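 Primary cyno hepatocytes, 24 h after plating, treated with LNPs (Cas9 mRNA plus sgRNA) preincubated 5 min in medium with 6% cyno serum; 8-point 3-fold doses from 300 ng mRNA. Lysed at 72 h; indel/substitution percentage by amplicon NGS, giving EC50 and maximum editing.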

Molecule | Max Editing [%]
B14 | 100.05

same assay, conditions: LNP formulated U-depleted Spy Cas9 mRNA and human specific sgRNAs

Molecule | Max Editing [%]
B1 | 96.73
B3 | 61.15
B4 | 89.21
B5 | 97.47
B6 | 56.52
B7 | 90.76
B8 | 74.94
B9 | 20.32
B10 | 58.04
B11 | 21.63
B12 | 60.84
B13 | 0.22
